According to US20120219559A1 (Johns Hopkins, published 2012):
Where two headings read alike, the source gives them in different places.

How the values were obtained:
[1] = molecular target: T1, human B7-H2Ig fusion protein (human, UniProt O75144 19-258); assay: SPR (BIAcore 3000); ICOSIg injected over B7-H2Ig coupled to a CM5 chip; 1:1 interaction model
T1 construct: Ig (Fc) part not given
T1 sequence: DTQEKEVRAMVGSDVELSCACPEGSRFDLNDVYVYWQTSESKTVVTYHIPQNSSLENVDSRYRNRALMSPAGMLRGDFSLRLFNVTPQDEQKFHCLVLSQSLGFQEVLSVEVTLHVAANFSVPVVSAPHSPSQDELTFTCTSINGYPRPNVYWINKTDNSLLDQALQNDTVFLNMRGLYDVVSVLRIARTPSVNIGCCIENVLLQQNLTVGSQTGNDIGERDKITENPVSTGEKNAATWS
Procedure: (§1) For all experiments, the same fusion proteins were injected into uncoated control flow cells to serve as the control. Binding data was overlaid with the fit of 1:1 interaction model.
(§2) Surface Plasmon Resonance. Protein interactions were measured and analyzed on a BIAcore 3000 instrument (BIAcore AB, Uppsala, Sweden) performed at 25° C. as described previously 20. […] Hepes, pH 7.4, containing 0.15 M NaCl, 0.005% surfactant P20 (HBS) was used as running buffer. […] All other reagents were purchased from BIAcore. […] The remaining activated carboxyl groups were blocked with 1 M ethanolamine (pH 8.5). Subsequently, the flow cells were extensively washed with HBS to generate a stable baseline. […] The flow cells were regenerated by two consecutive 10-second pulses with 10 mM NaOH. Data was analyzed by BIAevaluation software 4.1 (BIAcore).

[2] = molecular target: T1, human B7-H2Ig fusion protein; assay: SPR (BIAcore 3000); comparison of ICOSIg and CD28Ig on immobilized B7-H2Ig
Procedure: as §1, §2

[3] = molecular target: T2, human B7-DC expressed on 293T cells (human, UniProt Q9BQ51 20-273); assay: CDS well image, 293T cells transfected with the human gene, stained with the human fusion protein
T2 construct: whole, on cells
T2 sequence (looked up): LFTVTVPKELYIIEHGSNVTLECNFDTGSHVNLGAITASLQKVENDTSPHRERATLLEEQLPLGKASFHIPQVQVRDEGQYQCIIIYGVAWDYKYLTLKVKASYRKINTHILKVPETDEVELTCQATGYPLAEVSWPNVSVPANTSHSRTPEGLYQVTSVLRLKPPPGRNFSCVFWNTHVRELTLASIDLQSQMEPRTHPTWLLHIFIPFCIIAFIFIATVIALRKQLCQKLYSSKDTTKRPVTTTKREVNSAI

[4] = molecular target: T3, human B7-H1 expressed on 293T cells (human, UniProt Q9NZQ7 19-290); assay: as above
T3 construct: whole, on cells

[5] = molecular target: T4, human CTLA-4, full length, expressed on cells (CTLA-4+293T cells) (human, UniProt P16410 36-223); assay: as above
T4 sequence: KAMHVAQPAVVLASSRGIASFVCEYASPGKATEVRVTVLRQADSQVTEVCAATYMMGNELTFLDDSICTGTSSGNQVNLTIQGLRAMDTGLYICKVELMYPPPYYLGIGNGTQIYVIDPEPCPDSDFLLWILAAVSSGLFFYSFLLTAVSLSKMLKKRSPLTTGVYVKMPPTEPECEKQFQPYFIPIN

[6] = molecular target: T1, human B7-H2Ig fusion protein; assay: SPR (BIAcore 3000), ICOSIg injected over B7-H2Ig coupled at 500 RU, 1:1 fit
Procedure: as §1, §2

[7] = molecular target: T1, human B7-H2Ig fusion protein; assay: as above; remark: listed apart in the source
Procedure: as §2, with “Protein” for “Surface Plasmon Resonance. Protein”, “(3).” for “20.”, “pulse” for “pulses”

[8] = molecular target: T5, B7-H2 (Y51A) mutant, full length with C terminal GFP tag, on 293T cells (human, UniProt O75144 19-302, The C-terminal GFP reporter is not carried in the letters.); assay: flow cytometry; ICOSIg binding to 293T cells expressing the mutant
T5 construct: not shown: C-terminal GFP tag and any linker to it
T5 sequence: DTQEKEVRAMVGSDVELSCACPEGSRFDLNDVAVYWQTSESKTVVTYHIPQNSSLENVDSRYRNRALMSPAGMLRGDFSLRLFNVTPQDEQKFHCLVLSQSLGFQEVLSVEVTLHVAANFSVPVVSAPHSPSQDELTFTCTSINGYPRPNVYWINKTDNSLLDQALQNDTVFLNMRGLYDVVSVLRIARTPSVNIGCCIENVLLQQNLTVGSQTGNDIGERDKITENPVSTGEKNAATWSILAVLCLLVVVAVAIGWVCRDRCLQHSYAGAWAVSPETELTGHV
Source text: (§3) These residues were all converted to alanine, a small […] amino acid with neutral charge, to avoid a large overall structure modulation (16).

[9] = molecular target: T6, B7-H2 (Y53A) mutant, full length with C terminal GFP tag, on 293T cells (human, UniProt O75144 19-302, The C-terminal GFP reporter is not carried in the letters.); assay: as above
T6 construct: not shown: C-terminal GFP tag and any linker to it
T6 sequence: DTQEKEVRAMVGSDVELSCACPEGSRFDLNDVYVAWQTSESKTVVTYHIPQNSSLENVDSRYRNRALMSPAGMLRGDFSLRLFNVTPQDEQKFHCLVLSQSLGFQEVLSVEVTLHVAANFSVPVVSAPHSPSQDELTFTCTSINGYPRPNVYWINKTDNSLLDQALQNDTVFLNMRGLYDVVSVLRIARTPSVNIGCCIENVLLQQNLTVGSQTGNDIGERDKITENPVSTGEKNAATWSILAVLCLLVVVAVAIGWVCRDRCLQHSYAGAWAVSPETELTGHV
Source text: as §3

T3 sequence (Q9NZQ7 19-290): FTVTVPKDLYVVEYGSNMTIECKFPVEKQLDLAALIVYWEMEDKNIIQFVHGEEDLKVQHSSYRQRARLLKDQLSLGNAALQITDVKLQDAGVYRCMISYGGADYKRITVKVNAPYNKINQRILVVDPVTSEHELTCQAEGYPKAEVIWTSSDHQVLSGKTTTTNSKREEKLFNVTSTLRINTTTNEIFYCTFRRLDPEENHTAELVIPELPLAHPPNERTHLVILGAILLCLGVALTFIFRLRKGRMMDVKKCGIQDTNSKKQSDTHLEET

B1: human ICOSIg fusion protein (Fc fusion)
chain: EINGSANYEMFIFHNGGVQILCKYPDIVQQFKMQLLKGGQILCDLTKTKGSGNTVSIKSLKFCHSQLSNNSVSFFLYNLDHSHANYYFCNLSIFDPPPFKVTLTGGYLHIYESQLCCQLKF
notes: Bought from R&D Systems; Ig (Fc) part not given
In the case of B1, the koff [1] is reported as 0.004 s⁻¹, the kon [1] is reported as 240000 M⁻¹ s⁻¹ and the “fold higher affinity than CD28 for binding B7-H2” value [2] is reported as roughly 100 fold. B1: no binding [3]; no binding [4]; no binding [5]. For the same binder, the Kd [6] was 16 nM, the Kd [7] was 16 nM and the binding result [8] was “no binding”. B1: no binding [9].
